Biological target: ribosomal protein uS10 of the stalled 70S ribosome (E. coli, UniProt P0A7R5 1-103)
Assay: cryo-EM structure

B1: HrpA (E. coli DExH-box RNA helicase), preparation for cryo-EM (enzyme)
chain: MTEQQKLTFTALQQRLDSLMLRDRLRFSRRLHGVKKVKNPDAQQAIFQEMAKEIDQAAGKVLLREAARPEITYPDNLPVSQKKQDILEAIRDHQVVIVAGETGSGKTTQLPKICMELGRGIKGLIGHTQPRRLAARTVANRIAEELKTEPGGCIGYKVRFSDHVSDNTMVKLMTDGILLAEIQQDRLLMQYDTIIIDEAHERSLNIDFLLGYLKELLPRRPDLKIIITSATIDPERFSRHFNNAPIIEVSGRTYPVEVRYRPIVEEADDTERDQLQAIFDAVDELSQESHGDILIFMSGEREIRDTADALNKLNLRHTEILPLYARLSNSEQNRVFQSHSGRRIVLATNVAETSLTVPGIKYVIDPGTARISRYSYRTKVQRLPIEPISQASANQRKGRCGRVSEGICIRLYSEDDFLSRPEFTDPEILRTNLASVILQMTALGLGDIAAFPFVEAPDKRNIQDGVRLLEELGAITTDEQASAYKLTPLGRQLSQLPVDPRLARMVLEAQKHGCVREAMIITSALSIQDPRERPMDKQQASDEKHRRFHDKESDFLAFVNLWNYLGEQQKALSSNAFRRLCRTDYLNYLRVREWQDIYTQLRQVVKELGIPVNSEPAEYREIHIALLTGLLSHIGMKDADKQEYTGARNARFSIFPGSGLFKKPPKWVMVAELVETSRLWGRIAARIDPEWVEPVAQHLIKRTYSEPHWERAQGAVMATEKVTVYGLPIVAARKVNYSQIDPALCRELFIRHALVEGDWQTRHAFFRENLKLRAEVEELEHKSRRRDILVDDETLFEFYDQRISHDVISARHFDSWWKKVSRETPDLLNFEKSMLIKEGAEKISKLDYPNFWHQGNLKLRLSYQFEPGADADGVTVHIPLPLLNQVEESGFEWQIPGLRRELVIALIKSLPKPVRRNFVPAPNYAEAFLGRVKPLELPLLDSLERELRRMTGVTVDREDWHWDQVPDHLKITFRVVDDKNKKLKEGRSLQDLKDALKGKVQETLSAVADDGIEQSGLHIWSFGQLPESYEQKRGNYKVKAWPALVDERDSVAIKLFDNPLEQKQAMWNGLRRLLLLNIPSPIKYLHEKLPNKAKLGLYFNPYGKVLELIDDCISCGVDKLIDANGGPVWTEEGFAALHEKVRAELNDTVVDIAKQVEQILTAVFNINKRLKGRVDMTMALGLSDIKAQMGGLVYRGFVTGNGFKRLGDTLRYLQAIEKRLEKLAVDPHRDRAQMLKVENVQQAWQQWINKLPPARREDEDVKEIRWMIEELRVSYFAQQLGTPYPISDKRILQAMEQISG
B1: binds.
